The conditions of series [1]: O-GlcNAc at T49.
Series [2] deals with OGT (UniProt O15294). Put plainly: co-IP in H1299 cells. Particulars: reference: YTHDF2 wild type; sites S39.
The target in series [3] is OGT (UniProt O15294). In words: co-IP of HA-YTHDF2 and Myc-OGT. The conditions noted are these: reference: HA-YTHDF2 wild type; sites S39.
The next series is described as follows: anti-pS39 blot, H1299. The conditions noted are these: glycan lost; control: HA-YTHDF2-WT.
Series [4] can be described thus: anti-ubiquitin blot, H1299. Particulars: glycan lost; control: HA-YTHDF2-WT.
A short description of series [5]: anti-HA IP, anti-pS39 blot, 293T.
Series [6] in a line: CHX pulse-chase, protein remaining, H1299. Particulars: glycan lost; control: HA-YTHDF2-WT.
A short description of series [7]: CHX pulse-chase, protein remaining, HEK-293T. The conditions noted are these: glycan lost; control: HA-YTHDF2-WT.
The nature of series [8]: anti-HA IP, anti-ubiquitin blot, 293T, MG132. Particulars: glycan lost; control: HA-YTHDF2-WT.

For YTHDF2: OGA overexpression, the other entry in [1] is given as “decreases”.
For “YTHDF2: TMG plus glucose (OGA inhibition, raises O-GlcNAcylation)”, the other entry in series [1] is recorded as “decreases”.
As to “YTHDF2 (from UniProt Q9Y5A9) YTHDF2-S39A”, the “binding against the reference” value in the series with OGT [2] is “stronger”.
With YTHDF2: Flag-OGA overexpression, the other result in series [1] is “decreases, YTHDF2 ubiquitination, Ub/HA ratio ~0.5 vs 1.0 without OGA (read from plot, P < 0.05)”.
As for “YTHDF2 (from UniProt Q9Y5A9) HA-YTHDF2-S39A”, the “binding against the reference” value in the series with OGT [3] is reported as “stronger”.

B1: YTHDF2: T49A (protein)
parent chain: MSASSLLEQRPKGQGNKVQNGSVHQKDGLNDDDFEPYLSPQARPNNAYTAMSDSYLPSYYSPSIGFSYSLGEAAWSTGGDTAMPYLTSYGQLSNGEPHFLPDAMFGQPGALGSTPFLGQHGFNFFPSGIDFSAWGNNSSQGQSTQSSGYSSNYAYAPSSLGGAMIDGQSAFANETLNKAPGMNTIDQGMAALKLGSTEVASNVPKVVGSAVGSGSITSNIVASNSLPPATIAPPKPASWADIASKPAKQQPKLKTKNGIAGSSLPPPPIKHNMDIGTWDNKGPVAKAPSQALVQNIGQPTQGSPQPVGQQANNSPPVAQASVGQQTQPLPPPPPQPAQLSVQQQAAQPTRWVAPRNRGSGFGHNGVDGNGVGQSQAGSGSTPSEPHPVLEKLRSINNYNPKDFDWNLKHGRVFIIKSYSEDDIHRSIKYNIWCSTEHGNKRLDAAYRSMNGKGPVYLLFSVNGSGHFCGVAEMKSAVDYNTCAGVWSQDKWKGRFDVRWIFVKDVPNSQLRHIRLENNENKPVTNSRDTQEVPLEKAKQVLKIIASYKHTTSIFDDFSHYEKRQEEEESVKKERQGRGK
Take B1: the “other: Ser-39 phosphorylation” value in the series “anti-pS39 blot, H1299” is “increases”; in [5] (glycan lost, control: HA-YTHDF2-WT) it was “increases”. In addition, the “other: ubiquitination” value in series [4] and in series [8] was “decreases” each time. The degradation_or_half_life entry in [6] and in series [7] was “increases” in each case.

B2: YTHDF2: TMG plus glucose (protein)
parent chain: B1 parent chain
Take B2: the “other: Ser-39 phosphorylation” value in series [5] (glycan gained, control: untreated cells) is given as “decreases”.
